# From paper doi:10.1101/2022.05.16.492129, “Cachd1 is a novel Frizzled- and LRP6-interacting protein required for neurons to acquire left-right asymmetric character” (bioRxiv, 2022)
# B1: human LRP6 P1E1P2E2 (membrane distal fragment), biotinylated, for SPR (domain or fragment, UniProt O75581 20-630, looked up)
# chain: APLLLYANRRDLRLVDATNGKENATIVVGGLEDAAAVDFVFSHGLIYWSDVSEEAIKRTEFNKTESVQNVVVSGLLSPDGLACDWLGEKLYWTDSETNRIEVSNLDGSLRKVLFWQELDQPRAIALDPSSGFMYWTDWGEVPKIERAGMDGSSRFIIINSEIYWPNGLTLDYEEQKLYWADAKLNFIHKSNLDGTNRQAVVKGSLPHPFALTLFEDILYWTDWSTHSILACNKYTGEGLREIHSDIFSPMDIHAFSQQRQPNATNPCGIDNGGCSHLCLMSPVKPFYQCACPTGVKLLENGKTCKDGATELLLLARRTDLRRISLDTPDFTDIVLQLEDIRHAIAIDYDPVEGYIYWTDDEVRAIRRSFIDGSGSQFVVTAQIAHPDGIAVDWVARNLYWTDTGTDRIEVTRLNGTMRKILISEDLEEPRAIVLDPMVGYMYWTDWGEIPKIERAALDGSDRVVLVNTSLGWPNGLALDYDEGKIYWGDAKTDKIEVMNTDGTGRRVLVEDKIPHIFGFTLLGDYVYWTDWQRRSIERVHKRSAEREVIIDQLPDLMGLKATNVHRVIGSNPCAEENGGCSHLCLYRPQGLRCACPIGFELISDMKTCIVP
# modifications: biotin
# notes: human LRP6 P1E1P2E2 domains, residues A20-P630; source: HEK293T, co-transfected with a BirA-ER plasmid
# B2: mouse FZD5 cysteine rich domain (FZD5CRD), biotinylated, for SPR (domain or fragment, UniProt Q9EQD0 27-157, looked up)
# chain: ASKAPVCQEITVPMCRGIGYNLTHMPNQFNHDTQDEAGLEVHQFWPLVEIHCSPDLRFFLCSMYTPICLPDYHKPLPPCRSVCERAKAGCSPLMRQYGFAWPERMSCDRLPVLGGDAEVLCMDYNRSEATT
# modifications: biotin
# notes: mouse Fzd5 cysteine rich domain, residues A27-T157, synthesised (Genscript); also called mouse FZD5CRD; source: HEK293T, co-transfected with a BirA-ER plasmid
# B3: human LRP6 P3E3P4E4 (membrane proximal fragment), biotinylated, for SPR (domain or fragment, UniProt O75581 629-1244, looked up)
# chain: VPEAFLLFSRRADIRRISLETNNNNVAIPLTGVKEASALDFDVTDNRIYWTDISLKTISRAFMNGSALEHVVEFGLDYPEGMAVDWLGKNLYWADTGTNRIEVSKLDGQHRQVLVWKDLDSPRALALDPAEGFMYWTEWGGKPKIDRAAMDGSERTTLVPNVGRANGLTIDYAKRRLYWTDLDTNLIESSNMLGLNREVIADDLPHPFGLTQYQDYIYWTDWSRRSIERANKTSGQNRTIIQGHLDYVMDILVFHSSRQSGWNECASSNGHCSHLCLAVPVGGFVCGCPAHYSLNADNRTCSAPTTFLLFSQKSAINRMVIDEQQSPDIILPIHSLRNVRAIDYDPLDKQLYWIDSRQNMIRKAQEDGSQGFTVVVSSVPSQNLEIQPYDLSIDIYSRYIYWTCEATNVINVTRLDGRSVGVVLKGEQDRPRAVVVNPEKGYMYFTNLQERSPKIERAALDGTEREVLFFSGLSKPIALALDSRLGKLFWADSDLRRIESSDLSGANRIVLEDSNILQPVGLTVFENWLYWIDKQQQMIEKIDMTGREGRTKVQARIAQLSDIHAVKELNLQEYRQHPCAQDNGGCSHICLVKGDGTTRCSCPMHLVLLQDELSCG
# modifications: biotin
# notes: human LRP6 P3E3P4E4 domains, residues V629-G1244; also called 3-4; source: HEK293T, co-transfected with a BirA-ER plasmid
# B4: human LRP6 P3E3P4E4, for crystallography (domain or fragment, UniProt O75581 629-1244, looked up)
# chain: B3 chain
# notes: human LRP6 P3E3P4E4 domains, residues V629-G1244
# B5: mouse Cachd1 extracellular domain (CACHD1ECD) (domain or fragment)
# chain: DADFSILDEAQVLASQMRRLAAEELGVVTMQRIFNSLVYTEKISNGESEVQQLAKKIREKFNRYLDVVNRNKQVVEASYTAHLTSPLTAIQDCCTIPPSMMEFDGNFNTNVSRTVSCDRLSTTVNSRAFNPGRDLNSVLADNLKSNPGIKWQYFSSEEGIFTVFPAHKFRCKGSYEHRSRPIYVSTVRPQSKHIVVILDHGASVTDTQLQIAKDAAQVILSAIDEHDKISVLTVADAVRTCSLDQCYKTYLSPATSETKRKMSTFVSSVKPSDSPTQHAVGFHRAFQLIRSTSNSTRFQANTDMVIIYLSAGITSKDSSEEDKKATLRVINEENGFLNNSVMILTYALMNDGVTGLKELAFLRDLAEQNSGKYGIPDRTALPVIKGSMMVLNQLSNLETTVGRFYTNLPNRMIDEAVFSLPFSDEMGDGLIMTVSKPCYFGNLLLGIVGVDVNLAYILEDVTYYQDSLASYTFLIDDKGYTLMHPSLTRPYLLSEPPLHTDIIHYENIPKFELVRQNILSLPLGSQIITVPVNSSLSWHINKLRETGKEAYNVSYAWKMVQDTSFILCIVVIQPEIPVKQLKNLNTVPSSKLLYHRLDLLGQPSACLHFKQLATLESPTVMLSAGSFSSPYEHLSQPETKRMVEHYTAYLSDNTRLIANPGLKFSVRNEVMATSHVTDEWMTQMEMSSLNTYIVRRYIATPNGVLRIYPGSLMDKAFDPTRRQWYLHAVANPGLISLTGPYLDVGGAGYVVTISHTIHSSSTQLSSGHTVAVMGIDFTLRYFYKVLMDLLPVCNQDGGNKIRCFIMEDRGYLVAHPTLVDPKGHAPLEQQHITHKEPLVANDILNHPNFVKKNLCNSFSDRTVQRSYKFNTSLVGDLTNLVHGSHCSKYRLTRIPGTNAFVGIVNETCDSLAFCACSMVDRLCLNCHRMEQNECECPCECPLEVNECTGNLTNAENRNPSCEVHQEPVTYTAIDPGLQDALQQCVNSRCNQRMESGDCFGVLDCEWCVVDSDGKTHLDKSYCAPQKECFGGIVGAKSPYVDDMGAIGDEVITLNMIKS
# notes: mouse Cachd1 extracellular domain, residues D50-S1107, in pNeoSec; also called mouse CACHD1ECD; source: deglycosylated with EndoF1 before crystallisation
# B6: human FZD8 cysteine rich domain (FZD8CRD), biotinylated, for SPR (domain or fragment, UniProt Q9H461 28-158, looked up)
# chain: ASAKELACQEITVPLCKGIGYNYTYMPNQFNHDTQDEAGLEVHQFWPLVEIQCSPDLKFFLCSMYTPICLEDYKKPLPPCRSVCERAKAGCAPLMRQYGFAWPDRMRCDRLPEQGNPDTLCMDYNRTDLTT
# modifications: biotin
# notes: human FZD8 CRD, residues A28-T158, synthesised (Genscript); also called human FZD8CRD; source: HEK293T, co-transfected with a BirA-ER plasmid
# Columns and labels:
# Conditions in all cases: both partners purified
# [1] = target: B5; assay: SPR; biotinylated FZD CRDs or LRP6 fragments immobilised (about 500-1,000 RU) on an SA sensor chip, CACHD1ECD as analyte at 100 μL/min; Biacore S200, 25 °C, 10 mM HEPES pH 7.5, 150 mM NaCl, 0.005% Tween 20; equilibrium response fitted to a one-site saturation binding model
# [2] = target: B5; assay: crystal structure; ternary complex: Cachd1ECD mixed with equal molar FZD5CRD and LRP6 P3E3P4E4; 0.1 M calcium acetate, 0.1 M sodium acetate pH 4.5, 10% (w/v) PEG 4000; 4.7 Å
# [3] = target: human FZD7 cysteine rich domain (FZD7CRD), biotinylated, for SPR (human, UniProt O75084 33-170, biotin); assay: SPR; biotinylated FZD CRDs or LRP6 fragments immobilised (about 500-1,000 RU) on an SA sensor chip, CACHD1ECD as analyte at 100 μL/min; Biacore S200, 25 °C, 10 mM HEPES pH 7.5, 150 mM NaCl, 0.005% Tween 20; equilibrium response fitted to a one-site saturation binding model
Kd [1],Binder,other results
5860 nM,B1,
480 nM,B2,
170 nM,B3,
,B4,binding result [2]: binds
,B5,Kd [3]: 14.2 µM
950 nM,B6,
